Several values for one entry are separate records, joined by “and”; a condition that tells them apart may be missing. Equal entries are not always repeated.

Data set [1] addresses AidC, N-acyl-L-homoserine lactone (AHL) lactonase from Chryseobacterium sp. strain StRB126 (Chryseobacterium sp. strain StRB126). Kind of data set: SEC-MALS. On the technique in general: In gel filtration, larger molecules generally elute earlier.
Data set [2] deals with CCCCCCC(=O)N[C@H]1CCOC1=O. Kind of data set: purified protein. As to conditions: 1 mM Hepes pH 7.5, 30 μM ZnSO4, 1% methanol, dizinc enzyme.
The test system of data set [3] is CCCCCCCCCC(=O)N[C@H]1CCOC1=O. Kind of data set: purified protein. As to conditions: 1 mM Hepes pH 7.5, 30 μM ZnSO4, 1% methanol, dizinc enzyme.
In a further data set the test system is CCCC(=O)N[C@H]1CCOC1=O. Kind of data set: purified protein. As to conditions: 1 mM Hepes pH 7.5, 30 μM ZnSO4, 1% methanol, dizinc enzyme.
The test system of a further data set is CCCCCC(=O)N[C@H]1CCOC1=O. Kind of data set: purified protein. As to conditions: 1 mM Hepes pH 7.5, 30 μM ZnSO4, 1% methanol, dizinc enzyme.
The test system of data set [4] is O=C(/C=C/c1ccccc1)N[C@H]1CCOC1=O. Kind of data set: purified protein. Particulars: 1 mM Hepes pH 7.5, 30 μM ZnSO4, 1% methanol, dizinc enzyme.
The subject of data set [5] is CCCCCCCCCCCC(=O)N[C@H]1CCOC1=O. Kind of data set: purified protein. As to conditions: 1 mM Hepes pH 7.5, 30 μM ZnSO4, 1% methanol, dizinc enzyme.
The test system of data set [6] is CCCCCC(=O)CC(=O)N[C@H]1CCOC1=O. Kind of data set: purified protein. Particulars: 1 mM Hepes pH 7.5, 30 μM ZnSO4, 1% methanol, dizinc enzyme.
For data set [7], the system named is CCCCCCCC(=O)N[C@H]1CCOC1=O. Kind of data set: purified protein. Particulars: 1 mM Hepes pH 7.5, 30 μM ZnSO4, 1% methanol, dizinc enzyme.
The next data set concerns CC(C)(C)OC(=O)NC1CCOC1=O. Kind of data set: purified protein. As to conditions: 1 mM Hepes pH 7.5, 30 μM ZnSO4, 1% methanol, dizinc enzyme.
The next data set has as its system CCCCC(=O)N[C@H]1CCOC1=O. Kind of data set: purified protein. As to conditions: 1 mM Hepes pH 7.5, 30 μM ZnSO4, 1% methanol, dizinc enzyme.

The stoichiometry N is the number of molecules, sites or subunits per partner or assembly. In the case of “AidC, N-acyl-L-homoserine lactone (AHL) lactonase from Chryseobacterium sp. strain StRB126 (enzyme)”, the stoichiometry N in data set [1] was 2 and 4.

The term Km denotes the substrate concentration at which the rate is half of its maximum. The term kcat denotes the number of substrate molecules converted per active site and unit of time at saturation. The term kcat/Km denotes the turnover number divided by the Michaelis constant. For the substance AidC (Chryseobacterium sp. StRB126), the Km in data set [2] worked out at 47 ± 5 µM; in data set [3] it was 12 ± 4 µM; with CCCC(=O)N[C@H]1CCOC1=O, 470 ± 60 µM; in the data set with CCCCCC(=O)N[C@H]1CCOC1=O, 61 ± 4 µM; in data set [4], 470 ± 80 µM; in data set [5] it was 7 ± 4 µM. Moreover, the Km in data set [6] turned out to be 130 ± 20 µM; in [7], 83 ± 10 µM; with CC(C)(C)OC(=O)NC1CCOC1=O, 740 ± 70 µM; in the data set on CCCCC(=O)N[C@H]1CCOC1=O it was 130 ± 20 µM. For the same substance, the kcat in data set [2] is 80 ± 2 s⁻¹; in data set [3] it was 5.2 ± 0.4 s⁻¹; in the data set with CCCC(=O)N[C@H]1CCOC1=O, 39 ± 2 s⁻¹; with CCCCCC(=O)N[C@H]1CCOC1=O it was 59 ± 1 s⁻¹; in data set [4] it was 25 ± 2 s⁻¹; in [5] it was 0.4 ± 0.05 s⁻¹. In addition, the catalytic constant (kcat) turned out to be 28 ± 1 s⁻¹ in [6], 45 ± 3 s⁻¹ in [7], 44 ± 1 s⁻¹ in the data set with CC(C)(C)OC(=O)NC1CCOC1=O and 57 ± 3 s⁻¹ in the data set with CCCCC(=O)N[C@H]1CCOC1=O. The kcat/Km was 1.7e+06 M⁻¹ s⁻¹ in data set [2]; 430000 M⁻¹ s⁻¹ in data set [3]; 83000 M⁻¹ s⁻¹ in the data set with CCCC(=O)N[C@H]1CCOC1=O; 970000 M⁻¹ s⁻¹ in the data set on CCCCCC(=O)N[C@H]1CCOC1=O; 53000 M⁻¹ s⁻¹ in [4]; 57000 M⁻¹ s⁻¹ in [5]. The specificity constant (kcat/Km) in [6] is 220000 M⁻¹ s⁻¹; in [7], 540000 M⁻¹ s⁻¹; in the data set on CC(C)(C)OC(=O)NC1CCOC1=O it was 59000 M⁻¹ s⁻¹; in the data set with CCCCC(=O)N[C@H]1CCOC1=O, 440000 M⁻¹ s⁻¹.

Source of the values: paper PMC4681436.
